Test results taken from the supplement of paper PMC10567573.

B1: C8orf76 (parent)
chain: YCAKLCEPQWFYEETESSDDVEVL

Variants of: B1
Assay: protein stability index of a GFP-peptide fusion (GPS, HEK-293T) (PSI 1-6); higher = more stable
Details: c terminus: a fixed tail appended
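Further: lentivirally expressed fusions sorted by FACS into six bins by GFP to DsRed ratio, PSI derived from sequencing read proportions per bin multiplied by bin number.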

In order of rising protein stability index:
1. YCAKLCEPQWFYEITESSDDVEVL [E14I]  1.23
2. YCAKWCEPQWFYEETESSDDVEVL [L5W]  1.28
3. YCAKLCEIQWFYEETESSDDVEVL [P8I]  1.58
4. YCAKLCWPQWFYEETESSDDVEVL [E7W]  1.63
5. YCAKLCELQWFYEETESSDDVEVL [P8L]  1.67
6. YCAKLCEYQWFYEETESSDDVEVL [P8Y]  1.76
7. YCAKLCEPQWFYECTESSDDVEVL [E14C]  1.8
8. YCAKLCERQWFYEETESSDDVEVL [P8R]  1.86
9. YCAKLCEPQWYYEETESSDDVEVL [F11Y]  1.88
10. YCAKICEPQWFYEETESSDDVEVL [L5I]  1.98
11. YCAKSCEPQWFYEETESSDDVEVL [L5S]  2.04
12. YCAKKCEPQWFYEETESSDDVEVL [L5K]  2.05
13. YCAKLCEAQWFYEETESSDDVEVL [P8A]  2.09
14. YCAKLCEPQWFYEHTESSDDVEVL [E14H]  2.1
15. YCAKLCEPQWFYEGTESSDDVEVL [E14G]  2.11
16. YCAKLCEHQWFYEETESSDDVEVL [P8H]  2.12
17. YCAKLCEPQWFYEATESSDDVEVL [E14A]  2.14
18. YCAKPCEPQWFYEETESSDDVEVL [L5P]  2.15
19. YCAKLCYPQWFYEETESSDDVEVL [E7Y]  2.2
20. YCAKLCEPQWFYEFTESSDDVEVL [E14F]  2.24
21. YCAKLCEWQWFYEETESSDDVEVL [P8W]  2.27
22. YCAKLCAPQWFYEETESSDDVEVL [E7A]  2.27
23. YCAKFCEPQWFYEETESSDDVEVL [L5F]  2.29
24. YCAKLCVPQWFYEETESSDDVEVL [E7V]  2.3
25. YCAKLCEMQWFYEETESSDDVEVL [P8M]  2.32
26. YCAKLCIPQWFYEETESSDDVEVL [E7I]  2.32
27. YCAKLCFPQWFYEETESSDDVEVL [E7F]  2.33
28. YCAKLCEPQWFYEDTESSDDVEVL [E14D]  2.36
29. YCAKVCEPQWFYEETESSDDVEVL [L5V]  2.4
30. YCAKLCGPQWFYEETESSDDVEVL [E7G]  2.43
31. YCAKRCEPQWFYEETESSDDVEVL [L5R]  2.44
32. YCAKLCPPQWFYEETESSDDVEVL [E7P]  2.46
33. YCAKLCMPQWFYEETESSDDVEVL [E7M]  2.49
34. YCAKLCTPQWFYEETESSDDVEVL [E7T]  2.5
35. YCAKLCEQQWFYEETESSDDVEVL [P8Q]  2.55
36. YCAKLCHPQWFYEETESSDDVEVL [E7H]  2.57
37. YCAKLCRPQWFYEETESSDDVEVL [E7R]  2.6
38. YCAKLCESQWFYEETESSDDVEVL [P8S]  2.62
39. YCAKACEPQWFYEETESSDDVEVL [L5A]  2.62
40. YCAKLCEPQWWYEETESSDDVEVL [F11W]  2.63
41. YCAKQCEPQWFYEETESSDDVEVL [L5Q]  2.63
42. YCAKLCNPQWFYEETESSDDVEVL [E7N]  2.67
43. YCAKLCENQWFYEETESSDDVEVL [P8N]  2.69
44. YCAKLCCPQWFYEETESSDDVEVL [E7C]  2.69
45. YCAKLCEPQWHYEETESSDDVEVL [F11H]  2.71
46. YCAKLCEPQYFYEETESSDDVEVL [W10Y]  2.71
47. YCAKHCEPQWFYEETESSDDVEVL [L5H]  2.72
48. YCAKLCEPQWIYEETESSDDVEVL [F11I]  2.75
49. YCAKLCKPQWFYEETESSDDVEVL [E7K]  2.78
50. YCAKTCEPQWFYEETESSDDVEVL [L5T]  2.78
51. YCAKLCSPQWFYEETESSDDVEVL [E7S]  2.82
52. YCAKLCLPQWFYEETESSDDVEVL [E7L]  2.83
53. YCAKLCEPQWRYEETESSDDVEVL [F11R]  2.89
54. YCAKECEPQWFYEETESSDDVEVL [L5E]  2.94
55. YCAKMCEPQWFYEETESSDDVEVL [L5M]  2.97
56. YCAKGCEPQWFYEETESSDDVEVL [L5G]  2.99
57. YCAKLCEPQWAYEETESSDDVEVL [F11A]  3.01
58. YCAKCCEPQWFYEETESSDDVEVL [L5C]  3.03
59. YCAKLCEPQLFYEETESSDDVEVL [W10L]  3.04
60. YCAKLCEPQFFYEETESSDDVEVL [W10F]  3.22
61. YCAKLCQPQWFYEETESSDDVEVL [E7Q]  3.27
62. YCAKLCEPQWMYEETESSDDVEVL [F11M]  3.28
63. YCAKNCEPQWFYEETESSDDVEVL [L5N]  3.31
64. YCAKYCEPQWFYEETESSDDVEVL [L5Y]  3.33
65. YCAKLCEPQVFYEETESSDDVEVL [W10V]  3.35
66. YCAKLCEPQWVYEETESSDDVEVL [F11V]  3.38
67. YCAKLCEPQWCYEETESSDDVEVL [F11C]  3.41
68. YCAKDCEPQWFYEETESSDDVEVL [L5D]  3.42
69. YCAKLCEPQWGYEETESSDDVEVL [F11G]  3.43
70. YCAKLCEPQWPYEETESSDDVEVL [F11P]  3.44
71. YCAKLCEPQIFYEETESSDDVEVL [W10I]  3.45
72. YCAKLCEPQWNYEETESSDDVEVL [F11N]  3.48
73. YCAKLCEPQWTYEETESSDDVEVL [F11T]  3.48
74. YCAKLCEPQMFYEETESSDDVEVL [W10M]  3.51
75. YCAKLCEPQHFYEETESSDDVEVL [W10H]  3.52
76. YCAKLCEPQWSYEETESSDDVEVL [F11S]  3.54
77. YCAKLCEPQWLYEETESSDDVEVL [F11L]  3.56
78. YCAKLCEPQWQYEETESSDDVEVL [F11Q]  3.57
79. YCAKLCDPQWFYEETESSDDVEVL [E7D]  3.69
80. YCAKLCEPQCFYEETESSDDVEVL [W10C]  3.87
81. YCAKLCEPQPFYEETESSDDVEVL [W10P]  3.92
82. YCAKLCEPQWKYEETESSDDVEVL [F11K]  3.96
83. YCAKLCEPQEFYEETESSDDVEVL [W10E]  3.98
84. YCAKLCEPQGFYEETESSDDVEVL [W10G]  4.02
85. YCAKLCEPQAFYEETESSDDVEVL [W10A]  4.04
86. YCAKLCEPQNFYEETESSDDVEVL [W10N]  4.07
87. YCAKLCEPQKFYEETESSDDVEVL [W10K]  4.15
88. YCAKLCEPQTFYEETESSDDVEVL [W10T]  4.34
89. YCAKLCEPQWDYEETESSDDVEVL [F11D]  4.38
90. YCAKLCEPQQFYEETESSDDVEVL [W10Q]  4.45
91. YCAKLCEPQSFYEETESSDDVEVL [W10S]  4.48
92. YCAKLCEPQDFYEETESSDDVEVL [W10D]  4.5
93. YCAKLCEPQRFYEETESSDDVEVL [W10R]  4.74
94. YCAKLCEPQWEYEETESSDDVEVL [F11E]  4.83
